Results taken from paper PMC9482650, “Quantitative fragmentomics allow affinity mapping of interactomes” (Nature Communications, 2022).

T1: MPP6, Q9NZW5
T1 sequence (Q9NZW5 125-219, limits assumed, looked up): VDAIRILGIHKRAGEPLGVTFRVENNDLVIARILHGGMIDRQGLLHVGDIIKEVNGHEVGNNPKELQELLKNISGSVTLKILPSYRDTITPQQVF

T2: CARD11, Q9BXL7
T2 sequence (Q9BXL7 662-765, limits assumed, looked up): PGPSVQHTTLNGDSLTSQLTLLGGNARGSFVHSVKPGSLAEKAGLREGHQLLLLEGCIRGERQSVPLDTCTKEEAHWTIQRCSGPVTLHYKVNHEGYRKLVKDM

T3: MPP7, Q5T2T1
T3 sequence (Q5T2T1 134-230, limits assumed, looked up): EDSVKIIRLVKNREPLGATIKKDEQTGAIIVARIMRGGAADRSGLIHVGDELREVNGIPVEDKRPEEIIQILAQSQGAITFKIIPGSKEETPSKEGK

T4: MPDZ_5, O75970
T4 sequence (O75970 695-796, limits assumed, looked up): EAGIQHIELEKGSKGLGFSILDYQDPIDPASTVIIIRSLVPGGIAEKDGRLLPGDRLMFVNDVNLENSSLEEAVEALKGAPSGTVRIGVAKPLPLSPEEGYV

T5: MPDZ_10, O75970
T5 sequence (O75970 1624-1722, limits assumed, looked up): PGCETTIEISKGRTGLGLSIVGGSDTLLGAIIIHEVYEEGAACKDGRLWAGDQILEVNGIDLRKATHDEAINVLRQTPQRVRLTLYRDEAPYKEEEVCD

T6: GRIP1_7, Q9Y3R0
T6 sequence (Q9Y3R0 999-1096, limits assumed, looked up): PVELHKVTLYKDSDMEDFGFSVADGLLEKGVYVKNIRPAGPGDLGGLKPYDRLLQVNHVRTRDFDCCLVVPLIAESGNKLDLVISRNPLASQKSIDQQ

T7: LRRC7, Q96NW7
T7 sequence (Q96NW7 1440-1537, limits assumed, looked up): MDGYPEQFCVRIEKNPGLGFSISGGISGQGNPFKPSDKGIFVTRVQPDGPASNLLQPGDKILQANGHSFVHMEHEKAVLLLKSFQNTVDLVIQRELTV

T8: RADIL, Q96JH8
T8 sequence (Q96JH8 971-1071, limits assumed, looked up): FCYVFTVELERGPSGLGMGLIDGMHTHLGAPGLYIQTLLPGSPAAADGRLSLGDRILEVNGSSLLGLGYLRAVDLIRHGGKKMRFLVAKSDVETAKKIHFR

T9: DFNB31_1, Q9P202
T9 sequence (Q9P202 135-233, limits assumed, looked up): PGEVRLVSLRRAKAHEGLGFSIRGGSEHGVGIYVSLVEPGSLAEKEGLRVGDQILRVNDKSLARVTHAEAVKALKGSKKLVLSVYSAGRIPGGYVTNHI

T10: RAPGEF6, Q8TEU7
T10 sequence (Q8TEU7 525-625, limits assumed, looked up): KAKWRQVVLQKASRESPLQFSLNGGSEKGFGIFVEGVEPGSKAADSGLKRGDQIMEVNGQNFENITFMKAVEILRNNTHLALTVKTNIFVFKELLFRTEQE

T11: GRIP1_2, Q9Y3R0
T11 sequence (Q9Y3R0 145-248, limits assumed, looked up): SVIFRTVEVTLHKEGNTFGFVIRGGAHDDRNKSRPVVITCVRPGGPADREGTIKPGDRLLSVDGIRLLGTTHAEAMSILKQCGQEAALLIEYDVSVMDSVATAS

B1: AQP6, Q13520 (peptide)
chain: GSGAVEMESV
B2: BANF1, O75531 (peptide)
chain: CLREWCDAFL
B3: ERBB4, Q15303 (peptide)
chain: PPYRHRNTVV
B4: HCN2, Q9UL51 (peptide)
chain: SARSRLSSNL

target: T1, MPP6, Q9NZW5; test: holdup assay; set-up: key: below the threshold = too weak to quantify, mostly under pKd 3.1 to 4; details: plain residues with an end cap or a label only (N-terminal biotin on a linker: ado-ado)

pKd	Binder
below the threshold	B1
below the threshold	B2
below the threshold	B3
below the threshold	B4

target: HTRA2, O43464; test: holdup assay; set-up: key: below the threshold = too weak to quantify, mostly under pKd 3.1 to 4; details: plain residues with an end cap or a label only (N-terminal biotin on a linker: ado-ado)
Sequence (O43464 355-458): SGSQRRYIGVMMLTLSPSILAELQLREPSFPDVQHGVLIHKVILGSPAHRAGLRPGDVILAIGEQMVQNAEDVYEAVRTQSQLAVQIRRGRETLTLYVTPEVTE

pKd	Binder
below the threshold	B1
3.91	B2
below the threshold	B3
below the threshold	B4

target: Inadl_2, Q8NI35; test: holdup assay; set-up: key: below the threshold = too weak to quantify, mostly under pKd 3.1 to 4; details: plain residues with an end cap or a label only (N-terminal biotin on a linker: ado-ado)
Sequence (Q8NI35 238-335): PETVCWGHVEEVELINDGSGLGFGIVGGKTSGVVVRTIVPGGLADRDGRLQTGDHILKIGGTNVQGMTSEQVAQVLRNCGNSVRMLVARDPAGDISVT

pKd	Binder
below the threshold	B1
below the threshold	B2
below the threshold	B3
below the threshold	B4

target: T2, CARD11, Q9BXL7; test: holdup assay; set-up: key: below the threshold = too weak to quantify, mostly under pKd 3.1 to 4; details: plain residues with an end cap or a label only (N-terminal biotin on a linker: ado-ado)

pKd	Binder
below the threshold	B1
below the threshold	B2
below the threshold	B3
below the threshold	B4

target: T3, MPP7, Q5T2T1; test: holdup assay; set-up: key: below the threshold = too weak to quantify, mostly under pKd 3.1 to 4; details: plain residues with an end cap or a label only (N-terminal biotin on a linker: ado-ado)

pKd	Binder
below the threshold	B1
below the threshold	B2
below the threshold	B3
below the threshold	B4

target: DLG4_2, P78352; test: holdup assay; set-up: key: below the threshold = too weak to quantify, mostly under pKd 3.1 to 4; details: plain residues with an end cap or a label only (N-terminal biotin on a linker: ado-ado)
Sequence (P78352 155-259): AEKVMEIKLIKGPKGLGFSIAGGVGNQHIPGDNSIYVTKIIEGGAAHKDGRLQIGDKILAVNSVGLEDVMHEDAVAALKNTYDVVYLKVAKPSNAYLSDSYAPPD

pKd	Binder
below the threshold	B1
below the threshold	B2
4.97	B3
below the threshold	B4

target: FRMPD3, Q5JV73; test: holdup assay; set-up: key: below the threshold = too weak to quantify, mostly under pKd 3.1 to 4; details: plain residues with an end cap or a label only (N-terminal biotin on a linker: ado-ado)
Sequence (Q5JV73 12-100): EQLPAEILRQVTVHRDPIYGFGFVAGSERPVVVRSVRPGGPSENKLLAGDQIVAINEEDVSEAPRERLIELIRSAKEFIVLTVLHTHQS

pKd	Binder
below the threshold	B1
3.66	B2
below the threshold	B3
below the threshold	B4

target: Inadl_4, Q8NI35; test: holdup assay; set-up: key: below the threshold = too weak to quantify, mostly under pKd 3.1 to 4; details: plain residues with an end cap or a label only (N-terminal biotin on a linker: ado-ado)
Sequence (Q8NI35 547-651): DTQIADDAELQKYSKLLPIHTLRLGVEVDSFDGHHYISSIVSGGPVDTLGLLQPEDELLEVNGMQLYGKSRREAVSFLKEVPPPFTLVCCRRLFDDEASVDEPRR

pKd	Binder
below the threshold	B1
below the threshold	B2
below the threshold	B3
below the threshold	B4

target: T4, MPDZ_5, O75970; test: holdup assay; set-up: key: below the threshold = too weak to quantify, mostly under pKd 3.1 to 4; details: plain residues with an end cap or a label only (N-terminal biotin on a linker: ado-ado)

pKd	Binder
below the threshold	B1
below the threshold	B2
below the threshold	B3
below the threshold	B4

target: MAST1, Q9Y2H9; test: holdup assay; set-up: key: below the threshold = too weak to quantify, mostly under pKd 3.1 to 4; details: plain residues with an end cap or a label only (N-terminal biotin on a linker: ado-ado)
Sequence (Q9Y2H9 962-1065): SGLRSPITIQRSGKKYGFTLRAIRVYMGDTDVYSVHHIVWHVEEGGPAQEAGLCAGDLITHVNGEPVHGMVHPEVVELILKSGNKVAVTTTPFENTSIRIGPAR

pKd	Binder
3.65	B1
4.96	B2
below the threshold	B3
4.65	B4

target: T5, MPDZ_10, O75970; test: holdup assay; set-up: key: below the threshold = too weak to quantify, mostly under pKd 3.1 to 4; details: plain residues with an end cap or a label only (N-terminal biotin on a linker: ado-ado)

pKd	Binder
below the threshold	B1
below the threshold	B2
3.95	B3
below the threshold	B4

target: T6, GRIP1_7, Q9Y3R0; test: holdup assay; set-up: key: below the threshold = too weak to quantify, mostly under pKd 3.1 to 4; details: plain residues with an end cap or a label only (N-terminal biotin on a linker: ado-ado)

pKd	Binder
below the threshold	B1
below the threshold	B2
below the threshold	B3
below the threshold	B4

target: IL16_1, Q14005; test: holdup assay; set-up: key: below the threshold = too weak to quantify, mostly under pKd 3.1 to 4; details: plain residues with an end cap or a label only (N-terminal biotin on a linker: ado-ado)
Sequence (Q14005 210-306): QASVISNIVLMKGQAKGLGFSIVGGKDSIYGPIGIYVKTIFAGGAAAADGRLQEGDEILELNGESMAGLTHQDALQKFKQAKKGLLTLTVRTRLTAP

pKd	Binder
below the threshold	B1
below the threshold	B2
below the threshold	B3
below the threshold	B4

target: T7, LRRC7, Q96NW7; test: holdup assay; set-up: key: below the threshold = too weak to quantify, mostly under pKd 3.1 to 4; details: plain residues with an end cap or a label only (N-terminal biotin on a linker: ado-ado)

pKd	Binder
below the threshold	B1
3.84	B2
below the threshold	B3
below the threshold	B4

target: NHERF4_1, Q86UT5-2; test: holdup assay; set-up: key: below the threshold = too weak to quantify, mostly under pKd 3.1 to 4; details: plain residues with an end cap or a label only (N-terminal biotin on a linker: ado-ado)
Sequence (Q86UT5 other isoform, or with tags, fused parts or gaps): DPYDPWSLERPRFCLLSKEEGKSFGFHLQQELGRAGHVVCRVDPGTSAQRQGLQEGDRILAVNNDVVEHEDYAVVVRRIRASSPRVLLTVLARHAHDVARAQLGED

pKd	Binder
below the threshold	B1
4.13	B2
below the threshold	B3
3.96	B4

target: FRMPD4, Q14CM0; test: holdup assay; set-up: key: below the threshold = too weak to quantify, mostly under pKd 3.1 to 4; details: plain residues with an end cap or a label only (N-terminal biotin on a linker: ado-ado)
Sequence (Q14CM0 67-160): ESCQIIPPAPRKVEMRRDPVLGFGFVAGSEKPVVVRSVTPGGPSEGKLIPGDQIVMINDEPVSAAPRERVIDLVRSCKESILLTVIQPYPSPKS

pKd	Binder
below the threshold	B1
4.72	B2
below the threshold	B3
3.5	B4

target: T8, RADIL, Q96JH8; test: holdup assay; set-up: key: below the threshold = too weak to quantify, mostly under pKd 3.1 to 4; details: plain residues with an end cap or a label only (N-terminal biotin on a linker: ado-ado)

pKd	Binder
3.56	B1
3.85	B2
4.21	B3
below the threshold	B4

target: GRIP2_6, Q9C0E4; test: holdup assay; set-up: key: below the threshold = too weak to quantify, mostly under pKd 3.1 to 4; details: plain residues with an end cap or a label only (N-terminal biotin on a linker: ado-ado)
Sequence (Q9C0E4 648-740): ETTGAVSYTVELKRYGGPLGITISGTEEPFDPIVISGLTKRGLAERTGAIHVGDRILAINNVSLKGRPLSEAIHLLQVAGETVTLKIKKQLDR

pKd	Binder
below the threshold	B1
below the threshold	B2
below the threshold	B3
below the threshold	B4

target: T9, DFNB31_1, Q9P202; test: holdup assay; set-up: key: below the threshold = too weak to quantify, mostly under pKd 3.1 to 4; details: plain residues with an end cap or a label only (N-terminal biotin on a linker: ado-ado)

pKd	Binder
below the threshold	B1
below the threshold	B2
3.57	B3
below the threshold	B4

target: GOPC, Q9HD26; test: holdup assay; set-up: key: below the threshold = too weak to quantify, mostly under pKd 3.1 to 4; details: plain residues with an end cap or a label only (N-terminal biotin on a linker: ado-ado)

pKd	Binder
below the threshold	B1
below the threshold	B2
4.08	B3
3.5	B4

target: MAGI3_2, Q5TCQ9; test: holdup assay; set-up: key: below the threshold = too weak to quantify, mostly under pKd 3.1 to 4; details: plain residues with an end cap or a label only (N-terminal biotin on a linker: ado-ado)
Sequence (Q5TCQ9 398-503): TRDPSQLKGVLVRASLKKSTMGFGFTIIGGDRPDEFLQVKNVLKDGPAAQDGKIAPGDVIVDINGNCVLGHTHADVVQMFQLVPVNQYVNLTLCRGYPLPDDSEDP

pKd	Binder
below the threshold	B1
below the threshold	B2
4.79	B3
4.18	B4

target: MAGI2_5, Q86UL8; test: holdup assay; set-up: key: below the threshold = too weak to quantify, mostly under pKd 3.1 to 4; details: plain residues with an end cap or a label only (N-terminal biotin on a linker: ado-ado)
Sequence (Q86UL8 915-1017): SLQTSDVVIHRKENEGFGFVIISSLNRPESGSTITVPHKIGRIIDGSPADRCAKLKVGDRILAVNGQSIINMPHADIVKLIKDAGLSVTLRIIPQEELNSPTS

pKd	Binder
below the threshold	B1
below the threshold	B2
below the threshold	B3
below the threshold	B4

target: T10, RAPGEF6, Q8TEU7; test: holdup assay; set-up: key: below the threshold = too weak to quantify, mostly under pKd 3.1 to 4; details: plain residues with an end cap or a label only (N-terminal biotin on a linker: ado-ado)

pKd	Binder
below the threshold	B1
3.47	B2
below the threshold	B3
below the threshold	B4

target: LDB3, O75112; test: holdup assay; set-up: key: below the threshold = too weak to quantify, mostly under pKd 3.1 to 4; details: plain residues with an end cap or a label only (N-terminal biotin on a linker: ado-ado)
Sequence (O75112 1-94): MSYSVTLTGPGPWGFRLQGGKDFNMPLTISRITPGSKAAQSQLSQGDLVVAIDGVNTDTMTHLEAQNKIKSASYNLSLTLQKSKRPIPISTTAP

pKd	Binder
below the threshold	B1
below the threshold	B2
below the threshold	B3
below the threshold	B4

target: T11, GRIP1_2, Q9Y3R0; test: holdup assay; set-up: key: below the threshold = too weak to quantify, mostly under pKd 3.1 to 4; details: plain residues with an end cap or a label only (N-terminal biotin on a linker: ado-ado)

pKd	Binder
below the threshold	B1
below the threshold	B2
below the threshold	B3
below the threshold	B4

target: FRMPD2_2, Q68DX3; test: holdup assay; set-up: key: below the threshold = too weak to quantify, mostly under pKd 3.1 to 4; details: plain residues with an end cap or a label only (N-terminal biotin on a linker: ado-ado)
Sequence (Q68DX3 944-1038): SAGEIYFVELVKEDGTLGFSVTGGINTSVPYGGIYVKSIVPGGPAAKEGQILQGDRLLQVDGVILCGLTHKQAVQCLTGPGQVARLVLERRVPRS

pKd	Binder
below the threshold	B1
below the threshold	B2
below the threshold	B3
below the threshold	B4
